Experimental data from publication PMC10838290 (2024).

Target: GST-tagged ANKRD1 recombinant protein (Homo sapiens (Human), UniProt Q15327)
Experiment: GST pulldown with western blot

GST-tagged ANKRD1 recombinant protein, sequence (Q15327 whole entry): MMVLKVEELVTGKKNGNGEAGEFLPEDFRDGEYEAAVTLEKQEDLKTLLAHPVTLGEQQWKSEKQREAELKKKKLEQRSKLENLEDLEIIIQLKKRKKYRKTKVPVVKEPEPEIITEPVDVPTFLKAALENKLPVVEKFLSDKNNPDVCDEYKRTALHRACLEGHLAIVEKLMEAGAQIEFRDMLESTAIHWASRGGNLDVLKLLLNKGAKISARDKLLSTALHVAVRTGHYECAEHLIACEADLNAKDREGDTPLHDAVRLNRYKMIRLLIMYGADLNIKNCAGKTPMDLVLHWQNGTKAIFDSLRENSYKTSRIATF

binding result: no binding
B1: HIS-tagged JUN (truncated form 1-241aa) (protein)
chain: MTAKMETTFYDDALNASFLPSESGPYGYSNPKILKQSMTLNLADPVGSLKPHLRAKNSDLLTSPDVGLLKLASPELERLIIQSSNGHITTTPTPTQFLCPKNVTDEQEGFAEGFVRALAELHSQNTLPSVTSAAQPVNGAGMVAPAVASVAGGSGSGGFSASLHSEPPVYANLSNFNPGALSSGGGAPSYGAAGLAFPAQPQQQQQPPHHLPQQMPVQHPRLQALKEEPQTVPEMPGETPP
